Positions count from the first letter of the chain named.
B1: antibody 16 (antibody, V domains shown)
VH: QVTLKESGPGILQPSQTLSLTCSFSGFSLSTFALGVGWIRQPSGRGLEWLAHIWWDDDKYYNPALKSRLTISKDTSKNHVFLKIANVDTADTATYYCARITTYYYGMDYWGQGTSVTVSS
VL: DIVLSQSPATLSVTPGDSVSLFCRASQSIGNHLHWYQQESHASPRLLIKYASQSISGIPSRFSGSGSGTDFTLSINSVETEDFGMYFCQQSYNWPLTFGAGTKLELK
notes: mouse IgG, kappa light chain; also called clone #16; purified antibody 16
B2: antibody 3 (antibody, V domains shown)
VH: QVTLKESGPGILQPSQTLSLTCSFSGFSLTTFAMGIGWVRQPSGKGLEWLAHIWWDGEKYNNPVLKSRLTISKDTSKNQVFLRIANVDTPDTATYYCARISSIYYIIDNWGQGTSVTVSS
VL: B1 VL with S5T, D17H, F22S, G30S, H32N, Q38K, E39K, A42E, A51V
notes: mouse IgG, kappa light chain; also called clone #3; purified antibody 3
B3: antibody 5 (antibody, V domains shown)
VH: QVTLKESGPGILQPSQTLSLTCSFSGFSLSTFGMGVGWIRQPSGKGLEWLAHIWWDDEKYYNSALKSRLTISKATSKNQAFLKIANVDTADTATYYCARISNYGSNYWYFNVWGTGTTVTVSS
VL: QVVLTQSPALMSASPGEKVTMTCSAGSSVSCMYWYQQKPGSSPRVLIYDTSNLASGVPARFTGSGSGTSYSLTISRMEAEDAASYYCQQWNSYPLTFGAGTKLELK
notes: mouse IgG, kappa light chain; also called clone #5; purified antibody 5
B4: antibody 42 (antibody, V domains shown)
VH: B3 VH with F24L, M34R, S63P, A74D, A80V, K83R, S101Q, N111D
VL: LIVLTQSPAIMSASPGEKVTMTCGATSRISYMFWYQQKPGSSPRVLIYDTSNLASGVPVRFSGSGSGTSYSLTISRVEAEDVATYYCQQWNSYPLTFGAGTKLELK
notes: mouse IgG, kappa light chain; also called clone #42; purified antibody 42
B5: antibody 43 (antibody, V domains shown)
VH: B3 VH with T3A, P42S, H52N, E58D, S63P, A74D, T75A, S101G, N111D
VL: B4 VL with L1Q, K18R, G24S, T26N, F33Y, V45L, V77M, V82A, Y86N, N91S
notes: mouse IgG, kappa light chain; also called clone #43; purified antibody 43
B6: antibody 44 (antibody, V domains shown)
VH: B3 VH with G44E, E58D, S63P, A74D, A80I, A85T, D91E, A98S, S101G, N111D
VL: QIVLTQSPAVMSASPGEKVTMTCTASSSVYYMYWYQQTPGSSPRLLIYDTSNLASGVPVRFSGSGSGTSYSLTISRMEAEDAATYYCQQWNTYPLTFGAGTKLELK
notes: mouse IgG, kappa light chain; also called clone #44; purified antibody 44
B7: antibody 22 (antibody, V domains shown)
VH: B3 VH with A80V
VL: B3 VL with C31Y, S84T
notes: mouse IgG, kappa light chain; also called clone #22; purified antibody 22
B8: antibody 48 (antibody, V domains shown)
VH: QVQLQQSGTELVRPGTSVKVSCKASGYAFTNYLIEWVKQRPGQGLEWIGVINPGSGFTKYNEKFKGKATLTADKSSSTVYMHLSSLTSEDSAVYFCARGLYRAMDYWGQGTSVTVSS
VL: DIQMTQSPASQSASLGESVTITCLASQTIATWLAWYQQKPGKSPQLLIYGATTLADGVPSRFSGGGSGTKFSFKISSLQAEDFVSYYCQQLYSTPYTFGGGTKLEIK
notes: mouse IgG, kappa light chain; also called clone #48; purified antibody 48
B9: antibody 34 (antibody, V domains shown)
VH: QVTLKESGPGILQPSQTLSLTCSFSGFSLSTFSLGVGWIRQSSGKGLEWLAHIWWDDEKYYNPALKSRLTISKDTSKNQVFLKIANVDAADTATYYCARAYYSKSYYALDYWGQGTSVTVSS
VL: DIQMTQSPSSLSASLGERVSLTCRASQEISGYLSWLQQKPDGTIKRLIYAASTLDSGVPKRFSGSRSGSDYSLAISSLESEDFADYYCLQYANFPFTFGSGTKLEIK
notes: mouse IgG, kappa light chain; also called clone #34; purified antibody 34

What follows are binders tested against T1, hiR2-FL-L539A-T7 (human, UniProt Q6PJF5 1-856) (assay: FACS, MEF-DKO cells, 3 µg/ml).
T1 construct: on MEF-DKO cells
T1 sequence: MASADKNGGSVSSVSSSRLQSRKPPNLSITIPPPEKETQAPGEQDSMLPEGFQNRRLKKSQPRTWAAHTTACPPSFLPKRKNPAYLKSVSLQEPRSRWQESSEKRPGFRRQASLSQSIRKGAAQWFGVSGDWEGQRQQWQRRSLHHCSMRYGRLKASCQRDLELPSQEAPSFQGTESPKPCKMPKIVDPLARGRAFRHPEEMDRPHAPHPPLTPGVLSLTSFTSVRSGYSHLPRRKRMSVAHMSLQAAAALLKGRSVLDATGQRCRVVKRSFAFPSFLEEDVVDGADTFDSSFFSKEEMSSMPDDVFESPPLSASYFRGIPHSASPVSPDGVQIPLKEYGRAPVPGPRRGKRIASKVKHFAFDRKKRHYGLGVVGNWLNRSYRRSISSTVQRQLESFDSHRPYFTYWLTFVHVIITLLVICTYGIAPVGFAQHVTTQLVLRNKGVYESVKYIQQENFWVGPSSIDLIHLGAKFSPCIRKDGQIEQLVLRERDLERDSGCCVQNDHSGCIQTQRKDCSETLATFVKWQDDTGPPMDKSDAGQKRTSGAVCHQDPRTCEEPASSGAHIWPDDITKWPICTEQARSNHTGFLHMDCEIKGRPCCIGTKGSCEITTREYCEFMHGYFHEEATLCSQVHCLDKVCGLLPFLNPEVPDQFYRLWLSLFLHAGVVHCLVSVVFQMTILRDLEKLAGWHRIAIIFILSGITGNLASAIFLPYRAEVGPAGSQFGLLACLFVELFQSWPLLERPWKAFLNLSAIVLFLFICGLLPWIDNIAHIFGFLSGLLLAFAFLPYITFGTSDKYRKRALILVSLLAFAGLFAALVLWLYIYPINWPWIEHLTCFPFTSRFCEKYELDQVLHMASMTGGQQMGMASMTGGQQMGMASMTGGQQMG

B1 and B2 cannot be ordered by “loss of binding vs wild type” value: at least 30% for the first, at least 95% for the second.

B3 and B4 cannot be ordered by “loss of binding vs wild type” value: at least 95% for the first, at least 95% for the second.

B5 and B6 cannot be ordered by “loss of binding vs wild type” value: at least 95% for the first, at least 95% for the second.

B7 and B8 cannot be ordered by “loss of binding vs wild type” value: at least 95% for the first, at least 30% for the second.

With B9 the “loss of binding vs wild type” value was at least 95%.
